Experimental data published in publication PMC8113551 (2021).

B1: mAb114 (antibody, V domains shown)
VH: EVQLVESGGGLIQPGGSLRLSCAASGFALRMYDMHWVRQTIDKRLEWVSAVGPSGDTYYADSVKGRFAVSRENAKNSLSLQMNSLTAGDTAIYYCVRSDRGVAGLFDSWGQGILVTVSS
VL: DIQMTQSPSSLSASVGDRITITCRASQAFDNYVAWYQQRPGKVPKLLISAASALHAGVPSRFSGSGSGTHFTLTISSLQPEDVATYYCQNYNSAPLTFGGGTKVEIK
B2: ADI-15946 (antibody, V domains shown)
VH: EVQLVESGGGLVKPGGSLRLSCAASGFTFSNAWMSWVRQAPGKGLEWVGRIKSKTDGGTIDYAAPVKGRFTISRDDSKNTVYLQMTSLKTEDTAVYYCTTYTEDMRYFDWLLRGGETFDYWGQGTLVTVSS
VL: DIRLTQSPSSLSASVGDRVTITCRASHYISTYLNWYQQKPGKAPKLLIYAASNLQSGVPSRFSGSGFGTDFSLTISSLQPEDFATYHCQQSYSTPGRYTFGQGTKVEIK
B3: c4G7 (antibody, V domains shown)
VH: EVQLQESGPELEMPGASVKISCKASGSSFTGFSMNWVKQSNGKSLEWIGNIDTYYGGTTYNQKFKGKATLTVDKSSSTAYMQLKSLTSEDSAVYYCARSAYYGSTFAYWGQGTLVTVS
VL: DIQMTQSPASLSASVGETVTITCRASENIYSYLAWYQQKQGKSPQLLVYNAKTLIEGVPSRFSGSGSGTQFSLKINSLQPEDFGSYFCQHHFGTPFTFGSGTELEIK
B4: c2G4 (antibody, V domains shown)
VH: EVQLQESGGGLMQPGGSMKLSCVASGFTFSNYWMNWVRQSPEKGLEWVAEIRLKSNNYATHYAESVKGRFTISRDDSKRSVYLQMNTLRAEDTGIYYCTRGNGNYRAMDYWGQGTSVTVS
VL: DIQMTQSPASLSVSVGETVSITCRASENIYSSLAWYQQKQGKSPQLLVYSATILADGVPSRFSGSGSGTQYSLKINSLQSEDFGTYYCQHFWGTPYTFGGGTKLEIK
B5: KZ52 (antibody, V domains shown)
VH: EVQLLESGGGLVKPGGSLRLSCAASGFTLINYRMNWVRQAPGKGLEWVSSISSSSSYIHYADSVKGRFTISRDNAENSLYLQMNSLRAEDTAVYYCVREGPRATGYSMADVFDIWGQGTMVTVSS
VL: not shown
B6: c13C6 (antibody, V domains shown)
VH: DVKLLESGGGLVQPGGSLKLSCAASGFSLSTSGVGVGWFRQPSGKGLEWLALIWWDDDKYYNPSLKSQLSISKDFSRNQVFLKISNVDIADTATYYCARRDPFGYDNAMGYWGQGTSVTVS
VL: DIVMTQSPLSLSTSVGDRVSLTCKASQNVGTAVAWYQQKPGQSPKLLIYSASNRYTGVPDRFTGSGSGTDFTLTISNMQSEDLADYFCQQYSSYPLTFGAGTKLELR
B7: mAb100 (antibody, V domains shown)
VH: QVQLQESGPGLVKPSDTLSLTCTVSGGSLSSFYWSWIRQPPGKGLEWIGYIYYSGSPNYSPSLESRVTMSVDTTRNQISLKLDSVTAADTAVYYCVRASRSYYWGSYRPTAFDSWGQGTLVTVSS
VL: SYELTQPLSVSVSPGQTAIFTCSGDNLGDKYVCWFQQRPGQSPMLLIYQDNKRPSGIPERFSGSNSGNTATLTISGTQSTDEADYYCQTWDSTVVFGGGTKLTVL
B8: ADI-15878 (antibody, V domains shown)
VH: QVQLVQSGVTLVQPGGSLRVSCAASGFTFSSYAMSWVRQAPGKGLEWVSAISGLGGSTYYADSVKGRFTISRDNSKNTLYLQMNSLRAEDTAVYYCAKDHRVWAAGYHFDYWGQGALVTVSS
VL: DIVLTQSPSTLSASVGDRVTITCRASQSISSWLAWYQQKPGEAPKLLISDASSLESGVPSRFSGSGSGTEFTLTISSLQPDDFATYYCQQYYSSPTFGGGTKVEIK
B9: CA45 (antibody, V domains shown)
VH: QVQLQEWGEGLVKPSETLSLTCAVYGGSISGYYHWNWIRLPPGKGLEWIGNIDGNSASTNYNPSLKTRVTISKDTSKNQISLKVRSLTAADTAVYYCARDPGFTIFGVVITSWSGLDSWGQGAVVTVSS
VL: DIQMTQSPSSLSASVGDTVTITCRASQSISNNLAWYQQRPRRAPQLLIYAASNLASGVPSRFSGSGSGTDFTLTISSLQAEDFAAYYCQQHNTLPLTFGGGTKVEIK

biological target: GP[change] (Zaire ebolavirus | , UniProt Q05320); test: BLI

| Binder | Kd [pM] |
| --- | --- |
| B1 | < 1 |
| B2 | < 1 |
| B3 | < 1 |
| B4 | < 1 |
| B5 | < 1 |
| B6 | < 1 |
| B7 | < 1 |
| B8 | < 1 |
| B9 | < 1 |
